The target of the assay is T1, SETD3 WT (Homo sapiens, UniProt Q86TU7).
T1 construct: GST (cleaved yes); made in house; host or cells: Escherichia coli BL21(DE3) CodonPlus
T1 sequence (Q86TU7 1-594): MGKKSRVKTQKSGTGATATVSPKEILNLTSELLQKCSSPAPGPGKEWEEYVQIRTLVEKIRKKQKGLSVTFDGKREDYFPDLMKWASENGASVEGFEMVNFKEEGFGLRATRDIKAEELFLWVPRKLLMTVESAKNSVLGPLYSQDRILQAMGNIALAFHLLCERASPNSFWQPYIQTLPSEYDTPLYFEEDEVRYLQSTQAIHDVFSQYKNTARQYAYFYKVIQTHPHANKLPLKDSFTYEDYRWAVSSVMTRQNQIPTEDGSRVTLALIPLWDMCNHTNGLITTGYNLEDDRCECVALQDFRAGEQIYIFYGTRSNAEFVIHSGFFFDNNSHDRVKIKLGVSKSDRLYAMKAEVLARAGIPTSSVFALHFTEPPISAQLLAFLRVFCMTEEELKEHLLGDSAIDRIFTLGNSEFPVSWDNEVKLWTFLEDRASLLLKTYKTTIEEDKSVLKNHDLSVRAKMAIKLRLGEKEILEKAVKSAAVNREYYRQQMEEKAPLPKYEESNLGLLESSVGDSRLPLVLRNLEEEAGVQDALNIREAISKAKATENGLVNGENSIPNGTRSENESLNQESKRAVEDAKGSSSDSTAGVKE
The assay can be described thus: Steady-state kinetics of SETD3 WT on K73 peptides (Fig. 3b, c; pH 10.5, 37 °C, 40 µM SAM). It is filed as biochemical. The procedure:
Fig. 3 Kinetics of SETD3 on H73 and K73 peptides. a Comparison of activities of three variants (WT, N255A, and N255V) on H73(66–80) peptide. The assays were performed at room temperature (~22 °C) and pH 8.0 using [WT] = 0.18 μM, [N255A] = 0.18 μM, and [N255V] = 0.72 μM. b Comparison of SETD3 WT activities on two K73 peptides (residues 66–80 and 66–88). The assays were performed at 37 °C and pH 10.5 using [WT] = 3 and 15 μM, respectively, for the long and short peptides. c Comparison of activities of three variants (N255A, N255V, and WT) on K73(66–88) peptide. The assays were performed at 37 °C and pH 10.5 using [N255A] = 90 nM, [N255V] = 0.72 μM and [WT] = 4 μM. Data represent the mean ± SD of N number of independent determinations (N = 3 for the WT and N = 2 for the mutants) performed in duplicate. Source data are provided as a Source Data file. d, e Mass spectrometry analysis of K73(66–88) methylation kinetic showing representative spectra at various time points for N255A variant (panel d) and SETD3 WT enzyme (panel e). The assays were performed at 37 °C and pH 10.5 using 3 μM for both N255A and WT. f In vitro methylation reactions with SETD3, indicated full-length actin proteins, and radiolabeled methyl donor (^3H-SAM). Right, Reactions were resolved by SDS–PAGE and activity was visualized by autoradiography. […] The first column head is 'SETD3', and the substrate peptide is printed only on the plot axis. / Panel b: the first column head is 'SETD3 (WT)', and the rows are K73 peptide substrates.
Recombinant human SETD3 (pXC2003) was expressed as a GST-fusion[22] in Escherichia coli BL21(DE3) CodonPlus^TM cells (Stratagene). The SETD3 mutants at residue 255 (N255A; pXC2093 and N255V; pXC2094) were generated with Q5 Site-Directed Mutagenesis Kit (New England Biolabs), confirmed by sequencing and the same protocol for expression and purification were followed. Briefly, the purification was conducted in a BIO-RAD NGC^TM system using a three-column chromatography of glutathione-sepharose, HiTrap Q-HP and Superdex 200. The GST tag was removed by PreScisson Protease (purified in-house). The purified SETD3 proteins at a concentration ~25–35 mg/ml were kept at −80 °C in storage buffer for future use [20 mM Tris (pH 8.0), 200 mM NaCl, 5% glycerol, and 0.5 mM tris (2-carboxyethyl) phosphine (TCEP)].
A reaction mixture contained 20 mM Tris/HCl (pH 8.0) or 20 mM glycine/NaOH (pH 10.5), 50 mM NaCl, 0.1 mg/ml BSA, 1 mM DTT, 0.18–15 µM SETD3 (as indicated in Fig. 3), 40 µM SAM and varying concentration of peptides. The reactions were carried out at room temperature (~22 °C) or 37 °C for different time (20 min to 3 h) with a total volume of 20 µl, and terminated by the addition of TFA to 0.1% (v/v) for Tris/HCl (pH 8.0) or 0.4% (v/v) for Glycine/NaOH (pH 10.5). Samples terminated with the addition of 0.4% (v/v) TFA were then further diluted 4× with buffer 20 mM Tris/HCl (pH 8.0), 50 mM NaCl, 0.1 mg/ml BSA, 1 mM DTT to reduce the TFA concentration. The dependence of the velocity of product formation per enzyme on substrate concentration was analyzed according to the Michaelis–Menten equation.

Where [1] appears, read: pH 10.5, 37 °C, [WT] = 3 and 15 μM for long and short peptide (Fig. 3b), 4 μM (Fig. 3c).
Setting [2] is: pH 10.5, 37 °C, [WT] = 3 and 15 μM for long and short peptide (Fig. 3b), 4 μM (Fig. 3c), mean ± SD.

The term kcat/Km denotes the second-order rate constant that governs catalysis at low substrate concentration. The Km is the substrate concentration at which the rate is half of its maximum. One may read the kcat as the maximal rate divided by the concentration of active sites.

As for “K73(66–80): K73-containing (H73K) actin peptide, residues 66–80 (TLKYPIEKGIVTNWD; UniProt P60709 66-80, looked up, variant H73K)”, the “affinity for the substrate weaker than for H73 substrate” value (Km, K73(66–80) vs. H73(66–80)) is recorded as ~ 20 -fold. Further, the “maximum reaction rate slower than for H73 substrate” value (kcat, K73(66–80) (pH 10.5, 37 °C) vs. H73(66–80) (pH 8.0, ~22 °C)) was ~ 40 -fold. For the same substance, under “kcat/Km, K73(66–80) vs. H73(66–80)”, the “loss in catalytic efficiency” value is reported as “more than 1000 -fold”. For the same substance, the catalytic efficiency (kcat/Km) under setting [1] is 0.0013 h⁻¹ µM⁻¹. Besides, under setting [2], the Michaelis constant (Km) was 430 µM and the catalytic constant (kcat) amounted to 0.6 h⁻¹.

For the substance “K73(66–88): K73-containing actin H73K peptide, residues 66–88 (TLKYPIEKGIVTNWDDMEKIWHH; UniProt P60709 66-88, looked up, variant H73K)”, the “increase of catalytic efficiency on K73 by lengthened peptide” value (factor in kcat/Km, long (66–88) vs. short (66–80) peptide) was ~ 100. The kcat/Km under setting [1] was found to be 0.13 h⁻¹ µM⁻¹. Also, the Km under setting [2] is 5.2 µM. The “Km compared with H73(66–80) peptide” value (pH 10.5, K73(66–88) vs. H73(66–80)) was “about four-fold better”.
